Results as given in PMC3814058.

Key:
[1] = biological target: GFP–STIM2K dimer (oxidized, disulphide-linked through Cys725) (human) (UniProt Q9P246)
[2] = biological target: GFP–STIM2K dimer (oxidized, disulphide-linked through Cys725) (human) (UniProt Q9P246); experiment: pull-down; competition: GFP–STIM2K dimer bound to Ca^2+/CaM beads, eluted with 75 μM purified CaM or CaM mutant in 1 mM CaCl2; percent of bound GFP–STIM2K eluted
[3] = biological target: GFP–STIM2K dimer (oxidized, disulphide-linked through Cys725) (human) (UniProt Q9P246); remark: listed apart in the source
[4] = biological target: GFP–STIM2K dimer (oxidized, disulphide-linked through Cys725) (human) (UniProt Q9P246); remark: listed apart in the source
[5] = biological target: GFP–Zipper–STIM1K (GFP, tetramerization domain of the Gcn4 leucine zipper variant pLI, STIM1 K-rich domain) (yeast | human) (UniProt Q13586); experiment: SEC; Superdex 200 10/300 GL in HK buffer (25 mM HEPES/KOH pH 7.5, 150 mM KCl, 1 mM DTT), 0.5 ml/min; elution compared with marker proteins

Chain of GFP–STIM2K dimer (oxidized, disulphide-linked through Cys725) (human) (Q9P246 720-746): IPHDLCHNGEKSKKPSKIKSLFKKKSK

Substance: His(6)-tagged human CaM (calmodulin) (from UniProt P0DP23 1-149) (natural protein)
- reduction of binding of 2 μM GFP–STIM2K dimer to PC liposomes with 5 mol% PI(4,5)P2 after pre-incubation with 5 μM CaM in 100 μM CaCl2 (5-fold against no CaCl2, 3.8-fold against 100 μM CaCl2) [1]: 74%
- percent of GFP–STIM2K eluted from the Ca^2+/CaM beads [2]: 45%
- reduction of binding of 2 μM GFP–STIM2K dimer to PM-like liposomes with 2 mol% PI(4,5)P2 after pre-incubation with 5 μM CaM in 50, 100 or 200 μM CaCl2 (2.1-, 2.6- and 3.4-fold against CaCl2 alone) [3]: 71%
- reduction of binding of 2 μM GFP–STIM2K dimer to PM-like liposomes with 2 mol% PI(4,5)P2 after pre-incubation with 5 μM CaM in 100 μM CaCl2, against 100 μM CaCl2 alone [4]: 61%

Substance: GFP–Zipper–STIM1K (GFP, tetramerization domain of the Gcn4 leucine zipper variant pLI, STIM1 K-rich domain) (from UniProt Q13586-1 662-685)
- stoichiometry N [5]: 4

Substance: CaM1–4m (human CaM1–4 mutant, all four EF-hand domains mutated) (from UniProt P0DP23 1-149) (natural protein)
- percent of GFP–STIM2K eluted from the Ca^2+/CaM beads [2]: 7%
